We go through 31 molecules from patent publication US20100075897A1, “METHOD FOR S[…] BIOACTIVE PEPTIDES AND APPLICATION THEREOF” (JINAN UNIVERSITY, priority 2008, published 2010).

Like-named read-outs stand apart in the source and are kept apart here. Ends that are not written are not given here.

Assay [1] addresses GLP-1 receptor. Conditions: CHO/GLP-1R, competition with 125I-GLP-1; fusion polypeptides after treatment with thrombin and DPP IV; read-out: Receptor binding affinity IC50. The method, then:
(§1) The actual experimental steps were extracted from method as described by Montrose-Rafizadeh with proper modification as following:
(§2) (2) After cultured, removing supernatant, washing cells with cold PBS for three times, and then mixing with 0.5 mL 0.5 mol/L NaOH and 0.1% (mg/mL) SDS for 10 minutes. Irradiation of the cell lysis was determined by Apec-Series […] (ICN Biomedicals, Inc., Costa Mesa, Calif.).

For assay [2], the target named is GLP-1 receptor. In kind it is cell-based. Conditions: CHO/GLP-1R, 30 minutes; GLP-1 released from ABP-LK-GLP; read-out: cAMP production EC50. The method, then: Samples were rotated and then centrifuged for 5 minutes (2000 g, 4° C.) to acquire precipitation. Supernatant was removed by vacuum and then the precipitation was dissolved into 300 μL of […] Tris buffer (pH7.5, containing […] EDTA), added with sodium bicarbonate (0.15 mg/mL) and zinc sulfate (0.15 mg/mL), followed by being placed on ice for 15 minutes. Centrifugation was performed at 2000 g at 4° C. for […] to remove precipitation and obtain a supernatant. The supernatant was analyzed with [^3H] cAMP competition assay kit (Amersham Biotech, QC).

In assay [3] the target is T1, GLP-1 receptor.
T1 chain: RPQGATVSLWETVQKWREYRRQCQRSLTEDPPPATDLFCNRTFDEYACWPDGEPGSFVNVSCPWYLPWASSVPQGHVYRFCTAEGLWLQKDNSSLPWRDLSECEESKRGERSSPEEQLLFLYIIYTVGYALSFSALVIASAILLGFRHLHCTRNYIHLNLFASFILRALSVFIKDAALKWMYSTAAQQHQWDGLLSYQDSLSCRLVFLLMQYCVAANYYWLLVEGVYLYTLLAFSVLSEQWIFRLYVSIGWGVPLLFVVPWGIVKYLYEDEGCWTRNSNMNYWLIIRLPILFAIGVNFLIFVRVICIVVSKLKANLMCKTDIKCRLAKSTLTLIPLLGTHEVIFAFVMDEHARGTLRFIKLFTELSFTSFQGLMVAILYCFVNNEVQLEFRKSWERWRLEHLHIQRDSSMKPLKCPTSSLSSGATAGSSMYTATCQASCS
In words: cell-based or functional assay.

The target in assay [4] is T1, GLP-1 receptor. In words: competition with 125I-GLP-1 on CHO/GLP-1R cells; polypeptide digested with thrombin and DPP IV first. The method, then:
as §1, §2

In assay [5] the target is T2, human serum albumin (human, UniProt P02768 25-609).
T2 construct: Bought protein; coated on plates (ELISA) or coupled to a CM5 chip (SPR); also called HSA; human albumin
T2 sequence (P02768 25-609 limits assumed): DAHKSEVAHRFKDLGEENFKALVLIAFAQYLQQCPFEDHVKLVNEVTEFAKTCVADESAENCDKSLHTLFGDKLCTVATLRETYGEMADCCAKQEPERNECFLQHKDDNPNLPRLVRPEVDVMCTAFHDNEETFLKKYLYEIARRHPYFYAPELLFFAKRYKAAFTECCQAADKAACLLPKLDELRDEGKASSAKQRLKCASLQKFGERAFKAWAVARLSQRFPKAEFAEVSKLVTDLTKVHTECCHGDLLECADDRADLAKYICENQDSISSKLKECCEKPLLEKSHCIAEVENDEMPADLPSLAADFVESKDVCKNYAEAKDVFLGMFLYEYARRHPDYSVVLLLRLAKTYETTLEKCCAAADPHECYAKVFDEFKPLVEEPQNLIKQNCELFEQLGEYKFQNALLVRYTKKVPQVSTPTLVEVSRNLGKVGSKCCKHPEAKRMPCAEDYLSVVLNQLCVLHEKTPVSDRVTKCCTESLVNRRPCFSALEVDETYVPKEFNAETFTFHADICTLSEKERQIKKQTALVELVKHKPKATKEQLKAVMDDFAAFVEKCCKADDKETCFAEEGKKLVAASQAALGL
In words: phage ELISA on plate-coated HSA, sample row, dilution column 2 of 12.

Assay [6] concerns the target T2, human serum albumin. In words: phage ELISA on plate-coated HSA, Table 3 absorbance (sample minus blank), dilution column 3 of 12.
The target in assay [7] is T1, GLP-1 receptor. In words: competition with 125I-GLP-1 on CHO/GLP-1R cells.

On to “LPHSHRAHSLPPFNPRPA HAEGTFTSDVSSYLEGQAAKEFIAWLVKGRG [PA6.2]”, for which the IC50 in assay [1] was 2.2 ± 0.7 nM. For the same molecule, in assay [2], the half-maximal effective concentration (EC50) was determined as 23 ± 2.4 nM.

For “LPHSHRAHSLPPFNPRPP HAEGTFTSDVSSYLEGQAAKEFIAWLVKGRG [PP6.2]”, the IC50 in assay [1] amounted to 2.3 ± 0.8 nM. Moreover, the EC50 in assay [2] stood at 21 ± 2.1 nM.

Turning to “PDICLPRWGCLWEFNPRGA HAEGTFTSDVSSYLEGQAAKEFIAWLVKGRG [DP3.1]”, in assay [1], the IC50 was determined as 2.1 ± 0.5 nM. In assay [2], the concentration for a half-maximal effect (EC50) was found to be 23 ± 2 nM.

As for “PLPHSHRAHSLPPFNPRGP HAEGTFTSDVSSYLEGQAAKEFIAWLVKGRG [DP6.2]”, the IC50 in assay [1] stood at 2.1 ± 0.8 nM. Also, the EC50 in assay [2] came to 23 ± 2.1 nM.

Regarding “PNICLPRWGCLWDFNPRGA HAEGTFTSDVSSYLEGQAAKEFIAWLVKGRG [DP4.1]”, the IC50 in assay [1] was 2.5 ± 0.8 nM. The EC50 in assay [2] was 19 ± 2.1 nM.

With “PSSLLHWTHKIPALFNPRGS HAEGTFTSDVSSYLEGQAAKEFIAWLVKGRG [DP8.3]”, in assay [1], the half-maximal inhibitory concentration (IC50) came out at 2.5 ± 0.6 nM. Also, the EC50 in assay [2] was 23 ± 2.2 nM.

B1: DP4.3 fusion polypeptide (peptide)
peptide: PNICLPRWGCLWDFNPRGSHAEGTFTSDVSSYLEGQAAKEFIAWLVKGRG
notes: ABP-LK-GLP fusion polypeptide; also called ABP-LK-GLP
Regarding B1, the “cAMP production EC50” value in assay [3] came to 18 nM. This molecule gave a half-inhibitory concentration (IC50) in assay [4] of 2.1 nM.

B2: DP4.1 fusion polypeptide (peptide)
peptide: PNICLPRWGCLWDFNPRGAHAEGTFTSDVSSYLEGQAAKEFIAWLVKGRG
notes: as for B1
In the case of B2, the “cAMP production EC50” value in assay [3] stood at 19 nM. In addition, the IC50 in assay [4] amounted to 2.5 nM.

B3: DP3.3 fusion polypeptide (peptide)
peptide: PDICLPRWGCLWEFNPRGSHAEGTFTSDVSSYLEGQAAKEFIAWLVKGRG
notes: as for B1
With B3, the “cAMP production EC50” value in assay [3] came out at 21 nM. In addition, in assay [4], the half-inhibitory concentration (IC50) came out at 2.3 nM.

B4: DP3.1 fusion polypeptide (peptide)
peptide: PDICLPRWGCLWEFNPRGAHAEGTFTSDVSSYLEGQAAKEFIAWLVKGRG
notes: as for B1
B4: the “cAMP production EC50” value in assay [3] amounted to 23 nM. For the same molecule, the half-inhibitory concentration (IC50) in assay [4] is 2.1 nM.

B5: DP3.2 fusion polypeptide (peptide)
peptide: PDICLPRWGCLWEFNPRGPHAEGTFTSDVSSYLEGQAAKEFIAWLVKGRG
notes: as for B1
With B5, the “cAMP production EC50” value in assay [3] amounted to 19 nM. Moreover, the IC50 in assay [4] came out at 2.3 nM.

B6: Phage ID NO. 6 (M13 phage displaying the peptide of SEQ ID NO. 6, LPHSHRAHSLPP) (peptide)
peptide: LPHSHRAHSLPP
modifications: also: displayed on M13 phage coat protein
notes: Tested as whole phage particles, not as free peptide; not shown: not described
As to B6, the results for the “absorbance at 405 nm” value in assay [5] and in assay [6] were 0.09 and 0.05, respectively.

B7: DP8.3 fusion polypeptide (peptide)
peptide: PSSLLHWTHKIPALFNPRGSHAEGTFTSDVSSYLEGQAAKEFIAWLVKGRG
notes: ABP-LK-GLP fusion polypeptide, copied as printed with PSS at the N-terminus (DP8.1 and DP8.2 have PS); also called ABP-LK-GLP
With B7, the “cAMP production EC50” value in assay [3] stood at 23 nM. The same molecule gave an IC50 in assay [4] of 2.5 nM.

B8: Phage ID NO. 2 (M13 phage displaying the peptide of SEQ ID NO. 2, DVCLPQWGCLWG) (peptide)
peptide: DVCLPQWGCLWG
modifications: not fully specified (bridges); cysteine pairing not given here; also: displayed on M13 phage coat protein
notes: as for B6
For B8, the “absorbance at 405 nm” value in assay [6] was 0.04.

B9: FN-GLP (peptide)
peptide: FNPRHAEGTFTSDVSSYLEGQAAKEFIAWLVKGRG
notes: GLP-1(7-37) with N-terminal FNPR
For B9, in assay [3], the “cAMP production EC50” value is greater than 1000 nM. Besides, the IC50 in assay [7] amounted to 450 nM.

B10: LV-GLP (peptide)
peptide: LVPRHAEGTFTSDVSSYLEGQAAKEFIAWLVKGRG
notes: GLP-1(7-37) with N-terminal LVPR
Consider B10, for which the “cAMP production EC50” value in assay [3] is greater than 1000 nM. In assay [7], this molecule came in with a 50% inhibitory concentration (IC50) of 467 nM.

B11: M6.1 fusion polypeptide (peptide)
peptide: LPHSHRAHSLPPFNPRGAHAEGTFTSDVSSYLEGQAAKEFIAWLVKGRG
notes: as for B1
As for B11, the “cAMP production EC50” value in assay [3] is 24 nM. In addition, in assay [4], the IC50 was 2.2 nM.

B12: PA6.2 fusion polypeptide (peptide)
peptide: LPHSHRAHSLPPFNPRPAHAEGTFTSDVSSYLEGQAAKEFIAWLVKGRG
notes: as for B1
With B12, in assay [3], the “cAMP production EC50” value amounted to 23 nM. This molecule registered an IC50 in assay [4] of 2.2 nM.

B13: M6.2 fusion polypeptide (peptide)
peptide: LPHSHRAHSLPPFNPRGPHAEGTFTSDVSSYLEGQAAKEFIAWLVKGRG
notes: as for B1
As to B13, the “cAMP production EC50” value in assay [3] was determined as 21 nM. The molecule further registered an IC50 in assay [4] of 2.3 nM.

B14: PP6.2 fusion polypeptide (peptide)
peptide: LPHSHRAHSLPPFNPRPPHAEGTFTSDVSSYLEGQAAKEFIAWLVKGRG
notes: as for B1
In the case of B14, the “cAMP production EC50” value in assay [3] is 21 nM. The molecule further registered a concentration for half-maximal inhibition (IC50) in assay [4] of 2.3 nM.

B15: M8.1 fusion polypeptide (peptide)
peptide: SLLHWTHKIPALFNPRGAHAEGTFTSDVSSYLEGQAAKEFIAWLVKGRG
notes: as for B1
Regarding B15, in assay [3], the “cAMP production EC50” value stood at 24 nM. The molecule further came in with an IC50 in assay [4] of 2.2 nM.

B16: M8.3 fusion polypeptide (peptide)
peptide: SLLHWTHKIPALFNPRGSHAEGTFTSDVSSYLEGQAAKEFIAWLVKGRG
notes: as for B1
Regarding B16, the “cAMP production EC50” value in assay [3] turned out to be 21 nM. The same molecule gave an IC50 in assay [4] of 2.2 nM.

B17: M8.2 fusion polypeptide (peptide)
peptide: SLLHWTHKIPALFNPRGPHAEGTFTSDVSSYLEGQAAKEFIAWLVKGRG
notes: as for B1
In the case of B17, the “cAMP production EC50” value in assay [3] turned out to be 21 nM. This molecule yielded an IC50 in assay [4] of 1.9 nM.

B18: DP8.1 fusion polypeptide (peptide)
peptide: PSLLHWTHKIPALFNPRGAHAEGTFTSDVSSYLEGQAAKEFIAWLVKGRG
notes: as for B1
As for B18, the “cAMP production EC50” value in assay [3] was found to be 24 nM. In assay [4], this molecule returned an IC50 of 2.2 nM.

B19: DP8.2 fusion polypeptide (peptide)
peptide: PSLLHWTHKIPALFNPRGPHAEGTFTSDVSSYLEGQAAKEFIAWLVKGRG
notes: as for B1
As to B19, the “cAMP production EC50” value in assay [3] came out at 22 nM. The molecule further came in with an IC50 in assay [4] of 1.9 nM.

B20: M3.1 fusion polypeptide (peptide)
peptide: DICLPRWGCLWEFNPRGAHAEGTFTSDVSSYLEGQAAKEFIAWLVKGRG
notes: as for B1
For B20, the “cAMP production EC50” value in assay [3] was determined as 22 nM. In assay [4], this molecule had an IC50 of 2.2 nM.

B21: M3.2 fusion polypeptide (peptide)
peptide: DICLPRWGCLWEFNPRGPHAEGTFTSDVSSYLEGQAAKEFIAWLVKGRG
notes: as for B1
For the molecule B21, the “cAMP production EC50” value in assay [3] came to 21 nM. The molecule further had a half-maximal inhibitory concentration (IC50) in assay [4] of 2.1 nM.

B22: M4.2 fusion polypeptide (peptide)
peptide: NICLPRWGCLWDFNPRGPHAEGTFTSDVSSYLEGQAAKEFIAWLVKGRG
notes: as for B1
Take B22: in assay [3], the “cAMP production EC50” value is 21 nM. The molecule also gave an IC50 in assay [4] of 2.2 nM.

B23: M4.3 fusion polypeptide (peptide)
peptide: NICLPRWGCLWDFNPRGSHAEGTFTSDVSSYLEGQAAKEFIAWLVKGRG
notes: as for B1
As for B23, the “cAMP production EC50” value in assay [3] came out at 19 nM. In assay [4], this molecule came in with an IC50 of 2.2 nM.

B24: DP6.1 fusion polypeptide (peptide)
peptide: PLPHSHRAHSLPPFNPRGAHAEGTFTSDVSSYLEGQAAKEFIAWLVKGRG
notes: as for B1
B24: the “cAMP production EC50” value in assay [3] worked out at 23 nM. Further, the concentration for half-maximal inhibition (IC50) in assay [4] came to 2 nM.

B25: DP6.2 fusion polypeptide (peptide)
peptide: PLPHSHRAHSLPPFNPRGPHAEGTFTSDVSSYLEGQAAKEFIAWLVKGRG
notes: as for B1
Regarding B25, the “cAMP production EC50” value in assay [3] was 23 nM. The concentration for half-maximal inhibition (IC50) in assay [4] amounted to 2.1 nM.
